Experimental data: patent US20240124575A1 (SIMCERE ZAIMING PHARMACEUTICAL, published 2024)
Where two headings read alike, the source gives them in different places.

B1: C33B904 hIgG1 (antibody, V domains shown)
VH: EVQLVESGGGLVQPGRSLRLSCAASGFTFDDYAMHWVRQAPGKGLEWVSGIGWSGGSIVYADSVKGRFTISRDNAKNSLYLQMNSLRAEDTALYYCAKDSPYGDFFDYWGQGTLVTVSS
VL: DIVMTQSPDSLAVSLGERATINCKSSQTVFYSSNNKNYLAWYQQKPGQPPKLLISWASTRKSGVPDRFSGSGSGTDFTLTVSSLQAEDVAVYYCQHYYSTPYTFGQGTKLEIKR
notes: intact human IgG1; variable regions from US20190382481A1; also called C33B3904; C331B904
B2: C33B904 (antibody, human IgG1, kappa, V domains shown)
VH: B1 VH
VL: B1 VL
notes: control antibody, intact human IgG1 form; variable regions from US20190382481A1; also called C33B904 hIgG1; C331B904

Experiments:
human CD33-C2-his [1] = biological target: T1, human CD33-C2-his (human, UniProt P20138 136-260); test: ELISA on coated human CD33-C2-his
T1 construct: expressed in HEK293E; also called hCD33-C2-his; human CD33 protein C2-domain; not shown: His tag
Excerpt: Plates were coated with human CD33-V-his (membrane distal end) and human CD33-C2-his (membrane proximal end), respectively, according to the ELISA method in Example 8. The VHH humanized antibodies were classified based on the membrane distal end and the membrane proximal end, as shown in FIGS. 20A-20J and Table 44, which allowed the classification of the VHH humanized antibodies into the following classes: […]

[2] = biological target: T2, human CD33-His (extracellular domain Asp 18-His 259) (human, UniProt P20138 18-259); test: competitive ELISA vs coated S006-NB146-17 2ug/mL; soluble 25ug/ml
T2 construct: range 18-259; bought protein; also called hCD33-his; human CD33 protein; not shown: His tag
Method: VHH antibodies and control antibodies with known epitopes were subjected to epitope classification with competitive ELISA. ELISA plates were coated with 2 μg/mL antibodies according to the method in Example 5.1; the human CD33-his protein was subjected to a gradient dilution from 30 μg/mL, and EC80 values (Tables 26-27) were calculated. ELISA plates were coated with 2 μg/mL antibodies; after 25 µg/mL of antibodies to be tested were added, a human CD33-his protein having an EC80 concentration corresponding to each of the antibodies to be tested was then added for incubation for 2 h. The plates were washed 5 times with PBS, then HRP-labeled anti-His antibodies (purchased from GenScript, Cat. No. A00612) were added for incubation for 1 h, and the plates were washed 5 times. A TMB substrate was added at 50 μL/well and incubated at room temperature for 10 min, then a stop solution (1.0 M HCl) was added at 50 μL/well. OD_{450 nm} values were read using an ELISA plate reader (Insight, purchased from PerkinElmer), and the competition rate between the antibodies was calculated according to the OD_{450 nm} values using a formula. The results are shown in FIGS. 12A-12B, the higher the value of the competition rate, the closer the epitopes to which two antibodies bind.

human CD33-C2-his [3] = biological target: T1, human CD33-C2-his; test: ELISA on coated human CD33-C2-his; remark: listed apart in the source
human CD33-his protein [4] = biological target: T3, human CD33-his protein (human, UniProt P20138 18-259); test: competition ELISA, coated human CD33-his, vs Biotin-C33B904 at EC80; antibody 0 nM (no competitor)
T3 construct: range 18-259; bought protein; also called hCD33-his; recombinant human CD33-his; not shown: His tag
Method: ELISA plates were coated with 2 μg/mL human CD33-his protein according to the method in Example 5.1; the Biotin-C331B904 antibody was subjected to a gradient dilution from 15 μg/mL, and EC80 values (0.18 μg/mL) were calculated. ELISA plates were coated with 2 μg/mL human CD33-his protein; starting from 40 μg/mL, the VHH antibodies to be tested were diluted in a 1:2 dilution ratio to obtain seven concentrations and added to the ELISA plates, and then Biotin-C331904 antibodies with the EC80 concentrations were added for incubation for 2 h. The plates were washed 5 times with PBS and then […] (purchased from Sigma, Cat. No. S2438) were added for incubation for 1 h, and the plates were washed 5 times. A TMB substrate was added at 50 μL/well and incubated at room temperature for 10 min, then a stop solution (1.0 M HCl) was added at 50 μL/well. OD_{450 nm} values were read using an ELISA plate reader (Insight, purchased from PerkinElmer). Then, analysis was performed by software (GraphPad Prism8), and data were fitted for curve plotting. The results are shown in FIGS. 13A-13B and Tables 28 and 29.

human CD33-his protein [5] = biological target: T3, human CD33-his protein; test: competition ELISA, coated human CD33-his, vs Biotin-C33B904 at EC80; antibody 62.50 nM
Method: (§1) The plate was sealed with a plastic film and incubated at 4° C. overnight, washed twice with PBS the next day, and a blocking solution [PBS+2% (w/w) BSA] was added for blocking at room temperature for 2 h. The blocking solution was discarded, and VHH-Fc antibody or negative control antibody serially diluted from 100 nM was added at 50 μL/well. After incubation at 37° C. for 2 h, the plate was washed 3 times with PBS. A secondary antibody labeled with HRP (horseradish peroxidase) (purchased from Sigma, Cat. No. A0170) was added. After incubation for 1 h at 37° C., the plate was washed 5 times with PBS. A TMB substrate was added at 50 μL/well. After incubation at room temperature for 10 min, a stop solution (1.0 N HCl) was added at 50 μL/well. The OD450 nm values were read on an ELISA plate reader (Multimode Plate Reader, EnSight, purchased from Perkin Elmer). The assay results for the binding of the VHH-Fc to hCD33-his by ELISA are shown in FIGS. 7A and 7B and Tables 11 and 12. […] The IgG control was hIgG1, and the data in the table are OD450 nm values.
(§2) ELISA plates were coated with 2 μg/mL human CD33-his protein according to the method in Example 5.1; the Biotin-C331B904 antibody was subjected to a gradient dilution from 15 μg/mL, and EC80 values (0.18 μg/mL) were calculated. […] OD_{450 nm} values were read using an ELISA plate reader (Insight, purchased from PerkinElmer). […]

human CD33-his protein [6] = biological target: T3, human CD33-his protein; test: competition ELISA, coated human CD33-his, vs Biotin-C33B904 at EC80; antibody 0.98 nM
Method: as §1, §2

human CD33-his protein [7] = biological target: T3, human CD33-his protein; test: competition ELISA, coated human CD33-his, vs Biotin-C33B904 at EC80; antibody 500 nM
Method: as §1, §2

human CD33-his protein [8] = biological target: T3, human CD33-his protein; test: competition ELISA, coated human CD33-his, vs Biotin-C33B904 at EC80; antibody 1.95 nM
Method: as §1, §2

T3 sequence (P20138 18-259 limits assumed): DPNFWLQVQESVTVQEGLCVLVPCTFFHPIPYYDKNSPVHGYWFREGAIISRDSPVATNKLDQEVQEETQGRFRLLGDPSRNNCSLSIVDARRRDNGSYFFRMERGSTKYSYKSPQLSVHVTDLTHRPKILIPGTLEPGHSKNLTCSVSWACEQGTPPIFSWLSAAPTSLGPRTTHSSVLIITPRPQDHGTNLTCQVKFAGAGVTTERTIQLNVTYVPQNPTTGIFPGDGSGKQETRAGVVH
T1 sequence (P20138 other isoform, or with tags, fused parts or gaps limits assumed): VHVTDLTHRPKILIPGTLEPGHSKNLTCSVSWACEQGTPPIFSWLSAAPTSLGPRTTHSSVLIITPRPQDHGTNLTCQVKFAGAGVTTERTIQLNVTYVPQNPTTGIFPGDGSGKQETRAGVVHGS
T2 sequence (P20138 18-259 limits assumed): as the sequence (P20138 18-259 limits assumed) above

| Binder | EC50 (read off the curve) (human CD33-C2-his [1]) | inhibition rate [2] | EC50 (read off the curve) (human CD33-C2-his [3]) | OD450 (Biotin-C33B904 signal) (human CD33-his protein [4]) | OD450 (Biotin-C33B904 signal) (human CD33-his protein [5]) | OD450 (Biotin-C33B904 signal) (human CD33-his protein [6]) | OD450 (Biotin-C33B904 signal) (human CD33-his protein [7]) | OD450 (Biotin-C33B904 signal) (human CD33-his protein [8]) |
| --- | --- | --- | --- | --- | --- | --- | --- | --- |
| B1 | ~100 pM | 1% | ~400 pM |  |  |  |  |  |
| B2 |  |  |  | 2.35 | 0.24 | 2.31 | 0.08 | 2.43 |
